According to paper PMC13082707, “Role of the C-terminal modules of Klebsiella phage KP32 receptor-binding protein gp38 in protein and phage functionality” (PLOS Pathogens, 2026):

Tests used:
[1] = target: KP32gp38_ΔCBM (Klebsiella phage KP32); test: SEC-MALS; SEC-MALLS of selected KP32gp38 variants to assess the molecular weight of their oligomeric state, buffer and concentrations not told
[2] = target: KP32gp38_ΔLEC (Klebsiella phage KP32)
[3] = target: KP32gp38_ΔLEC (Klebsiella phage KP32); test: SEC-MALS; SEC-MALLS of selected KP32gp38 variants to assess the molecular weight of their oligomeric state, buffer and concentrations not told
[4] = target: KP32gp38_LIN-CBM-LEC (Klebsiella phage KP32); test: as above
[5] = target: KP32gp38_CP-E_K11gp0043_LIN-CBM-LEC (Klebsiella phage KP32 | Klebsiella phage K11); test: as above
[6] = target: GFP_KP32gp38_LIN-CBM-LEC (Klebsiella phage KP32); test: as above
[7] = target: KP32gp38_CP-E-LIN_K11gp0043_CBM-LEC (Klebsiella phage KP32 | Klebsiella phage K11); test: as above
[8] = target: KP32gp38_Δ(LIN-CBM) (Klebsiella phage KP32); test: as above
[9] = target: KP32gp38_LEC (Klebsiella phage KP32); test: as above
[10] = target: the molecule itself; test: as above

With KP32gp38_ΔCBM (domain or fragment) the stoichiometry N [1] was 3.

Molecule KP32gp38_ΔLEC (domain or fragment) has an enzymatic activity (halo formation on K21/KL163 lawns) compared to the WT [2] of 1000 fold, a percent dimers [3] of 10% and a stoichiometry N [3] of 2.

Molecule “KP32gp38_LIN-CBM-LEC (domain or fragment)” has a stoichiometry N [4] of 3.

KP32gp38_CP-E_K11gp0043_LIN-CBM-LEC was tested, and the stoichiometry N [5] was 3.

Work on “GFP_KP32gp38_LIN-CBM-LEC (domain or fragment)” yielded a stoichiometry N [6] of 3.

Work on KP32gp38_CP-E-LIN_K11gp0043_CBM-LEC yielded a stoichiometry N [7] of 3.

Molecule “KP32gp38_Δ(LIN-CBM) (domain or fragment)” has a stoichiometry N [8] of 3.

In the case of KP32gp38_LEC (domain or fragment), the stoichiometry N [9] is reported as greater than 25.

B1: KP32gp38_WT, receptor-binding protein 2 (RBP2) of Klebsiella phage KP32 (natural protein, UniProt D1L2X1 1-576, looked up)
chain: MLDNFNQPKGSTIGVLKDGRTIQEAFDSLPRLESFSGSTATDKLRAAITLGVSEVAIGPVEGNGGRPYEFGDVVIPYPLRIVGCGSQGINVTKGTVLKRSAGASFMFHFTGEGQAQRPMGGGLFNINLNGDTATALGDIIKVTQWSYFKANNCAFQNMAGWGIRLKDVMESNISGNLFRRLGGPSGGGILFDDVRSAVTDNVNNLHIEDNTFALMSGPWIGSTANSNPDLIWIVRNKFEFDGTPAAPNTVDSYVLDFQQLSRAFIQDNGFTHFTTERNRYVGVLRVGATAVGTIKFEDNLLFACESAGLIAGGIVVSRGNVNNQGSATTAIKQFTNTSSKLCKLERVINVQSNGNVSVGQQILPDGYINMAELPGNTRLPSEYDADGETTSVLRVPANTQVRQWSVPKMYKDGLTVTKVTVRAKGAAAGAILSLQSGSTVLSTKSIDAGVWKNYVFYVKANQLQETLQLRNTGTADVLADGMVFGKVDYIDWDFAIAPGTLAAGAKYTTPNQSYLDVAGMRVQAVSIPMFDGPTTGLQVWVEATSANGSFVVVMKNDTGSELVTTVTRCRVRAFVS
notes: KP32gp38 (RBP2, capsule depolymerase/tailspike) of Klebsiella phage KP32; domains CP-E-LIN-CBM-LEC; Expressed from pVTD3 (C-terminal His-tag); also called KP32gp38 WT depolymerase; source: E. coli BL21(DE3), purified (His GraviTrap or HisPur Ni-NTA)
For B1, the “stoichiometry N” value [10] was 3.
